Source: PMC3429349 (Science (New York, N.Y.), 2009)

Target: the molecule itself

B1: HSF1 K80Q (natural protein, human, UniProt Q00613 1-529, looked up)
chain: MDLPVGPGAAGPSNVPAFLTKLWTLVSDPDTDALICWSPSGNSFHVFDQGQFAKEVLPKYFKHNNMASFVRQLNMYGFRQVVHIEQGGLVKPERDDTEFQHPCFLRGQEQLLENIKRKVTSVSTLKSEDIKIRQDSVTKLLTDVQLMKGKQECMDSKLLAMKHENEALWREVASLRQKHAQQQKVVNKLIQFLISLVQSNRILGVKRKIPLMLNDSGSAHSMPKYSRQFSLEHVHGSGPYSAPSPAYSSSSLYAPDAVASSGPIISDITELAPASPMASPGGSIDERPLSSSPLVRVKEEPPSPPQSPRVEEASPGRPSSVDTLLSPTALIDSILRESEPAPASVTALTDARGHTDTEGRPPSPPPTSTPEKCLSVACLDKNELSDHLDAMDSNLDNLQTMLSSHGFSVDTSALLDLFSPSVTVPDMSLPDLDSSLASIQELLSPQEPPRPPEAENSSPDSGKQLVHYTAQPLFLLDPGSVDTGSNDLPVLFELGEGSYFSEGDGFAEDPTISLLTGSEPPKAKDPTVS
Question: Which “stoichiometry N” value does the source give for B1 here?
Answer: 3
